Source: publication PMC7985710

Key:
[1] = target: WT scavenger receptor class B type I (human SR-BI) (human) (UniProt Q8WTV0); experiment: radioligand binding; [^125I]-HDL binding: transfected COS-7 cells incubated with 10 μg/ml double-radiolabeled human HDL for 1.5 h at 4°C
[2] = target: R174C-SR-BI (human variant of scavenger receptor class B type I) (human) (UniProt Q8WTV0); experiment: as above
[3] = target: Human HDL, double-radiolabeled; experiment: [125I]-HDL cell association on transfected COS-7 cells; conditions: COS-7 cells transiently expressing WT or mutant SR-BI; n = 3 independent transfections; empty vector bar est. 30 % of WT; parent: est. 100; read off a plot

Row | HDL binding (raw value) (ng/mg protein) [1] | HDL binding, percent of WT-SR-BI [2] | percent of parent [3] | Substance
1 | 22.7 | 31.3% |  | Human HDL, double-radiolabeled (complex)
2 |  |  | 82 % of WT | WT scavenger receptor class B type I (human SR-BI) (from UniProt Q8WTV0-2) D185R
3 |  |  | 44 % of WT | WT scavenger receptor class B type I (human SR-BI) (from UniProt Q8WTV0-2) R174D; D185R
4 |  |  | 72 % of WT | WT scavenger receptor class B type I (human SR-BI) (from UniProt Q8WTV0-2) R174K
